Results on 4 substances are retold here after publication PMC3285612.

Assay [1] has as its target thrombin (UniProt P00734). The conditions noted are these: cited from earlier work.
For assay [2], the target named is recombinant Simukunin (rSV-66) (Simulium vittatum) (UniProt B5M0W4). The assay can be described thus: SPR; kinetics: rSimukunin immobilised on a CM5 chip by amine coupling (475.3 RU); FXa 3.1-50 nM or elastase 0.45-3.75 nM injected for 180 s at 30 µl/minute, 25°C; HBS-P (10 mM Hepes pH 7.4, 150 mM NaCl, 0.005% P20); global fit to a 1:1 Langmuir model. (In general: SPR reads the build-up and loss of mass on a sensor chip optically.)
Sequence of recombinant Simukunin (rSV-66) (Simulium vittatum) (B5M0W4 20-102): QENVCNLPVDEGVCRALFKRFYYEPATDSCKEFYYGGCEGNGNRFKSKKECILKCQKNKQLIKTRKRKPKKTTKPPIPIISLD

Assay [3] concerns the target Factor X (Homo sapiens) (UniProt P00742). The conditions noted are these: cited from earlier work.
In assay [4] the target is Factor Xa (Homo sapiens) (UniProt P00742). To be noted: cited from earlier work.
Sequence of Factor Xa (Homo sapiens) (P00742 235-488): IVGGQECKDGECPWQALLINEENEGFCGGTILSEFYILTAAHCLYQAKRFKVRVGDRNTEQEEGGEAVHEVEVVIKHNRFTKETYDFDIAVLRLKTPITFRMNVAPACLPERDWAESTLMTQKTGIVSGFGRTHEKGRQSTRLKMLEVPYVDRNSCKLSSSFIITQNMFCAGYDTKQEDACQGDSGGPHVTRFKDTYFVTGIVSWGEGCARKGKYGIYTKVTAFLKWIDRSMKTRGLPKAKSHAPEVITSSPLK
Assay [5] has as its target Factor Xa (FXa) (Homo sapiens) (UniProt P00742). To be noted: cited from earlier work.
Assay [6] concerns the target Factor X (FX) (Homo sapiens) (UniProt P00742). To be noted: cited from earlier work.
In assay [7] the target is thrombin (UniProt P00734). The conditions noted are these: cited from earlier work. This is another data set of the same source.

Like-named read-outs stand apart in the source and are kept apart here.

Sequence of ixolaris (Q964Q0 27-165): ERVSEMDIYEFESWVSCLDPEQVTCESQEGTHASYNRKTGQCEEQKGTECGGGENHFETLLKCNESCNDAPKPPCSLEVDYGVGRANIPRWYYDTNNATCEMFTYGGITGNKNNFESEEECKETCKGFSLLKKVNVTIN
Sequence of Factor Xa (FXa) (Homo sapiens) (P00742 41-179, chain 1 of 2): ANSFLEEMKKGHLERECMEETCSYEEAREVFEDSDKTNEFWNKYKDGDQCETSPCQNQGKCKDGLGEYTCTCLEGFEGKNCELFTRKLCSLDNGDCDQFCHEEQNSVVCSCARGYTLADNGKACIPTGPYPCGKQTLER
Sequence of Factor Xa (FXa) (Homo sapiens) (P00742 235-488, chain 2 of 2): as the sequence (P00742 235-488) above
Sequence of Factor X (Homo sapiens) (P00742 41-179): as the sequence (P00742 41-179, chain 1 of 2) above
Sequence of Factor X (FX) (Homo sapiens) (P00742 41-179, chain 1 of 2): as above
Sequence of Factor X (FX) (Homo sapiens) (P00742 183-488, chain 2 of 2): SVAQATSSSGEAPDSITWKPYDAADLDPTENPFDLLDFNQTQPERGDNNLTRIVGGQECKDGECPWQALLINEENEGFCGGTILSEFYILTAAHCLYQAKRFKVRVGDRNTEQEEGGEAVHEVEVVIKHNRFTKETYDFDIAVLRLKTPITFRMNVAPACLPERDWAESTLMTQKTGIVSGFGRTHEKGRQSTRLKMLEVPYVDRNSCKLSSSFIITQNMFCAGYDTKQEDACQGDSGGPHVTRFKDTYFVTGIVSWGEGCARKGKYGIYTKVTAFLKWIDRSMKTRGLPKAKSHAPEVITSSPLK
Sequence of amblin (Q5VJG2 16-166): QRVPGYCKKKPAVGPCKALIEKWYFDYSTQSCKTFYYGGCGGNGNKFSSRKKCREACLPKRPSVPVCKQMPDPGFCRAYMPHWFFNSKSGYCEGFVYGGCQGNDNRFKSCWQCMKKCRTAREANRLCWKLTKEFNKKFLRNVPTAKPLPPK
Sequence of ornithodorin (P56409 whole entry): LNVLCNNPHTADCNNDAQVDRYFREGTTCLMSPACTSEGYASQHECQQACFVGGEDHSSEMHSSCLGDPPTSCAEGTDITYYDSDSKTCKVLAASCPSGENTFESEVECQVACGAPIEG

Regarding amblin (from UniProt Q5VJG2), the inhibition constant (Ki) (commonly the equilibrium dissociation constant of an inhibitor or competing ligand from its target) in assay [1] is 20 nM.
Take “activated coagulation factor X (FXa), human (enzyme)”: in assay [2], the Kd (in general, the equilibrium constant for the complex coming apart) worked out at 3.07 nM; the koff – broadly, the first-order rate constant of dissociation – is 0.000303 s⁻¹; the kon (usually the second-order rate constant of association) came out at 98700 M⁻¹ s⁻¹.
As for ixolaris (from UniProt Q964Q0), the Kd is 0.67 nM in assay [3], 0.25 nM in assay [4], 0.25 nM in assay [5] and 0.67 nM in assay [6].
Regarding ornithodorin (from UniProt P56409), the Ki in assay [7] is 0.001 nM.
